For orientation: Kd means the free concentration of one partner at which half of the binding sites on the other are occupied at equilibrium, for simple one-to-one binding.

Data on two variants can be found in article PMC11470957, “Principles of paralog-specific targeted protein degradation engaging the C-degron E3 KLHDC2” (Nature Communications, 2024).

The chains are these.
B1: KLHDC2 substrate binding domain (KLHDC2^SBD, 15-361) [not stated] / BRD3^BD2 (second bromodomain of BRD3, residues 306-416) [not stated] (parent)
chain 1: GPAFESYESMELACPAERSGHVAVSDGRHMFVWGGYKSNQVRGLYDFYLPREELWIYNMETGRWKKINTEGDVPPSMSGSCAVCVDRVLYLFGGHHSRGNTNKFYMLDSRSTDRVLQWERIDCQGIPPSSKDKLGVWVYKNKLIFFGGYGYLPEDKVLGTFEFDETSFWNSSHPRGWNDHVHILDTETFTWSQPITTGKAPSPRAAHACATVGNRGFVFGGRYRDARMNDLHYLNLDTWEWNELIPQGICPVGRSWHSLTPVSSDHLFLFGGFTTDKQPLSDAWTYCISKNEWIQFNHPYTEKPRLWHTACASDEGEVIVFGGCANNLLVHHRAAHSNEILIFSVQP
chain 2: GKLSEHLRYCDSILREMLSKKHAAYAWPFYKPVDAEALELHDYHDIIKHPMDLSTVKRKMDGREYPDAQGFAADVRLMFSNCYKYNPPDHEVVAMARKLQDVFEMRFAKMP

Variants of B1 are the subject of one assay. Nature of the assay: ITC. The conditions noted are these: with BRD3^BD2 (second bromodomain of BRD3, residues 306-416); syringe: R56A KLHDC2SBD; cell: BRD3BD2-SJ46421 (ternary complex via PROTAC SJ46421); n = 2.
Regarding chain 1 GPAFESYESMELACPAERSGHVAVSDGRHMFVWGGYKSNQVAGLYDFYLPREELWIYNMETGRWKKINTEGDVPPSMSGSCAVCVDRVLYLFGGHHSRGNTNKFYMLDSRSTDRVLQWERIDCQGIPPSSKDKLGVWVYKNKLIFFGGYGYLPEDKVLGTFEFDETSFWNSSHPRGWNDHVHILDTETFTWSQPITTGKAPSPRAAHACATVGNRGFVFGGRYRDARMNDLHYLNLDTWEWNELIPQGICPVGRSWHSLTPVSSDHLFLFGGFTTDKQPLSDAWTYCISKNEWIQFNHPYTEKPRLWHTACASDEGEVIVFGGCANNLLVHHRAAHSNEILIFSVQP [chain 1 R42A], the Kd came out at 273 nM.

The same assay, now with this note: with KLHDC2 substrate binding domain (KLHDC2^SBD, 15-361); syringe: KLHDC2SBD; cell: E344G BRD3BD2-SJ46421 (ternary complex via PROTAC SJ46421); n = 2.
For the variant chain 2 E39G, the Kd is 181 nM.
